Laboratory results: patent US20220185894A1

How the values were obtained:
[1] = molecular target: CD20 endogenously expressed on Raji cells (UniProt P11836); assay: cell-based or functional assay
[2] = molecular target: human FcγRIIa (R&D Systems, 1330-CD) (human) (UniProt P12318); assay: SPR, BIAcore 3000; FcγR immobilised, 500 µg/ml injected
[3] = molecular target: human FcγRI (R&D Systems, 1257-FC) (human) (UniProt P12314); assay: SPR, Biacore T200; FcγR immobilised, 200 µg/ml injected
[4] = molecular target: human FcγRIIIa (R&D Systems, 4325-FC) (human) (UniProt P08637); assay: as above
[5] = molecular target: human FcγRIIa (R&D Systems, 1330-CD) (human) (UniProt P12318); assay: SPR, Biacore T200; FcγR immobilised, 500 µg/ml injected
[6] = molecular target: human FcγRIIb/c (R&D Systems, 1875-CD) (human) (UniProt P31994); assay: as above
[7] = molecular target: human FcγRI (R&D Systems, 1257-FC) (human) (UniProt P12314); assay: SPR, BIAcore 3000; FcγR immobilised, 100 µg/ml injected
[8] = molecular target: human FcγRIIb/c (R&D Systems, 1875-CD) (human) (UniProt P31994); assay: SPR, BIAcore 3000; FcγR immobilised, 500 µg/ml injected
[9] = molecular target: mouse LAG-3 expressed on cells (mouse) (UniProt Q61790); assay: flow cytometry on HEK cells expressing murine LAG-3
[10] = molecular target: mouse LAG-3 expressed on cells (mouse) (UniProt Q61790); assay: flow cytometry on HEK cells expressing mouse LAG-3

Sequence of mouse LAG-3 expressed on cells (mouse) (Q61790 24-521 limits assumed): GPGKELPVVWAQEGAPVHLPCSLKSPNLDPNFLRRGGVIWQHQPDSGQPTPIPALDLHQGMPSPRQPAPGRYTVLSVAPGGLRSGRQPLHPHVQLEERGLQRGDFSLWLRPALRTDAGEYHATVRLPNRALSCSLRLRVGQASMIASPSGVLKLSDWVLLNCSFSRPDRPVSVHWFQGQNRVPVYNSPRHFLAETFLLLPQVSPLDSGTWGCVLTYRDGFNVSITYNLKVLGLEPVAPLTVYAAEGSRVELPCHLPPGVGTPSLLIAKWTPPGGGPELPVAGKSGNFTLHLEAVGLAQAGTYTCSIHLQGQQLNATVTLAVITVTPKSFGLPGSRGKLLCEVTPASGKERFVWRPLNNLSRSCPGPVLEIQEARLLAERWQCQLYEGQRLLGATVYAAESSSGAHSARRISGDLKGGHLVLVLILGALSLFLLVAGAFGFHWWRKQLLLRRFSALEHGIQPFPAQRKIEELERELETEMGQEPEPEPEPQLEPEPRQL
Sequence of human FcγRIIb/c (R&D Systems, 1875-CD) (human) (P31994 46-217 limits assumed): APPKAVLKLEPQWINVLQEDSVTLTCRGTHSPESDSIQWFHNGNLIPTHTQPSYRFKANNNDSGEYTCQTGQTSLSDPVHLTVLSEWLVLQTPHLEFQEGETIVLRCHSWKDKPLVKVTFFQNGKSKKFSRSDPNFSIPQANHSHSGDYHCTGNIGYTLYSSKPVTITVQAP
Sequence of human FcγRIIa (R&D Systems, 1330-CD) (human) (P12318 36-218 limits assumed): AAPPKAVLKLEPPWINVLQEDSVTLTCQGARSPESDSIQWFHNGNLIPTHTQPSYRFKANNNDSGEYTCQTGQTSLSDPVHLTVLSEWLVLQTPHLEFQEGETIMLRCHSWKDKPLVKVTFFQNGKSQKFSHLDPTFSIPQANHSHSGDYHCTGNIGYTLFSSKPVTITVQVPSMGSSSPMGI
Sequence of CD20 endogenously expressed on Raji cells (P11836 whole entry): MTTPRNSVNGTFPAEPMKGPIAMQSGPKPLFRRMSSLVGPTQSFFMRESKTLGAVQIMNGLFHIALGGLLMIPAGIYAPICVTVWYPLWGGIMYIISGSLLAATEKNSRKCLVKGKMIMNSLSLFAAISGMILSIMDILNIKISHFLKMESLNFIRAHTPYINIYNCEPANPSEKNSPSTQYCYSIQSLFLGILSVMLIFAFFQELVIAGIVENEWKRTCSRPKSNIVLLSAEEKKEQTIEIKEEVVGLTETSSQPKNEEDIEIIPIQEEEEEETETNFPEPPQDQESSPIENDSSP
Sequence of human FcγRI (R&D Systems, 1257-FC) (human) (P12314 16-288 limits assumed): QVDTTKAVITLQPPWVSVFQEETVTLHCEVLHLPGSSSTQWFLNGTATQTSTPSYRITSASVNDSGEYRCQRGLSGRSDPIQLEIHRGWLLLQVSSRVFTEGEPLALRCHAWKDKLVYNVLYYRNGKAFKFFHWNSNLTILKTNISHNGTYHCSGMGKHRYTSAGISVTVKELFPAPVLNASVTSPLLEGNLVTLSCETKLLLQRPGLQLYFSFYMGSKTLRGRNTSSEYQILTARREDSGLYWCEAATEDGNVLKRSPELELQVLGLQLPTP
Sequence of human FcγRIIIa (R&D Systems, 4325-FC) (human) (P08637 17-208 limits assumed): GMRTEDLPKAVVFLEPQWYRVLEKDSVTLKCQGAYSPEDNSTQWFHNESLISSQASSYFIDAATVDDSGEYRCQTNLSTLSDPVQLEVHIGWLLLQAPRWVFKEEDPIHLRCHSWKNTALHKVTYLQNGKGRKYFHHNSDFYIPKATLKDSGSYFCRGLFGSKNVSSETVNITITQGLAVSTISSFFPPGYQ

binding response at end of association (RU) [2] [RU] | binding response at end of association (RU) [3] [RU] | binding response at end of association (RU) [4] [RU] | binding response at end of association (RU) [5] [RU] | binding response at end of association (RU) [6] [RU] | Substance | further results
– | – | – | – | – | anti-CD20 antibody Rituximab (generic version, IgG1 format) | ADCC, LDH release, maximum lysis of LAG-3 expressing Raji cells [1]: 40%; ADCC, LDH release, maximum lysis of PD-L1 expressing Raji cells [1]: 40%; CDC, LDH release, maximum lysis of PD-L1 expressing Raji cells [1]: < 60%
7 | – | – | – | – | mouse IgG1 (Sigma, P5305) (antibody) | –
8 | 9 | 3.1 | 4.3 | 15.1 | monoclonal IgG4 isotype mAb to an irrelevant target (antibody) | binding response at end of association (RU) [7]: 8 RU; binding response at end of association (RU) [8]: 9 RU
9 | 0 | 1.9 | 9.7 | 7.4 | monoclonal IgG2 isotype mAb to an irrelevant target (antibody) | –
– | – | – | – | – | benchmark anti-mouse LAG-3 mAb C9B7W (2B Scientific, BE0174-50MG) (antibody) | EC50 [9]: 27 nM; EC50 [10]: 79 nM; fold poorer affinity (EC50) than the Fcabs [10]: 17 fold
